Test results as given in patent US20230144459A1 (published 2023).
Where no end group is shown, it is not given here.

Biological target: T1, BSA conjugated CD28 stalk region dimeric peptide (also: dimer, conjugated to BSA via C-terminal Lys)
T1 peptide: GKHLCPSPLFPGPSKPK
Assay: ELISA

IC50: 9 ng/mL
B1: antibody M9 (antibody, V domains shown)
VH: DVKLVESGGGLVKLGGSLKLSCVASGFTFSSYYMSWVRQTPEKRLEWVATISDGGDNTYYAGTVTGRFTISRDFAKNTLYLQMNSLTSEDTAVYYCARIHWPYYFDSWGQGTTLTVSS
VL: QFVLSQSPAILSASPGEMLTMTCRASSSVSYMNWYQQKPGSSPKPWIYATSDLASGVPARFSGSGSGTSYSLTISRVEAEDAATYYCQQWSSHPPTFGGGTKLEIR
